Results from patent US20190233498A1 (H LUNDBECK A S, published 2019).

B1: anti-PACAP antibody Ab6 (antibody, human IgG1, kappa, N297A, V domains shown)
VH: LEQSGGGAEGGLVKPGGSLELCCKASGFSLSSTYWMCWVRQAPGKGLEWIGCIYTGSGSTDYASWVNGQFTLSRDIDQSTGCLQLNSLTVADTAMYYCTKNFDLWGPGTLVTVSS
VL: AQVLTQTPSSVSAAVGGTVTINCQSSPSVYSNNYLSWFQQKPGQPPKGLIADASTLASGVPSRFKGSGSGTQFTLTISGVQCDDAAAYYCLGYYDCGSTDCHAFGGGTEVVVKR
notes: full-length rabbit/human chimeric antibody
B2: anti-PACAP antibody Ab8 (antibody, human IgG1, kappa, N297A, V domains shown)
VH: LEQSGGGAEGGLVKPGGSLELCCKASGFSLTTSHWMCWVRQAPGKGLNWIGCISAGSGDADYATWVDAQFTLSRDIDQNTGCLQLNSLTPADTAMYYCTINFELWGQGTLVTVSS
VL: AQVLTQTPSSVSAAVGGTVTINCQSSPSVYSSYLSWFQQKPGQPPKFLIYEASKLASGVPSRFSGSGSGTQFTLTISGVQCSDAATYYCLGAYDCGRTDCHAFGGGTEVVVKR
notes: as for B1
B3: anti-PACAP antibody Ab4 (antibody, human IgG1, kappa, N297A, V domains shown)
VH: QSVEESGGRLVTPGTPLTLTCTVSGFSLSSYDMSWVRQAPGKGLEYIGIINTNDDTWYASWVKGRFTISKTSSTTVDLKMTSLTTEDTATYFCARISDAYVFDYAYYFTLWGQGTLVTVSS
VL: ALVMTQTPSSVSAAVGGTVTINCLASQNIYNSLAWYQQKPGQPPKLLIYRASTLASGVSSRFKGSGSGTQFTLTISGVECADAATYYCQQGAGADNIGNPFGGGTEVVVKR
notes: as for B1
B4: anti-PACAP antibody Ab5 (antibody, human IgG1, kappa, N297A, V domains shown)
VH: QSVEESGGRLVTPGTPLTLTCTVSGFSLSSYAMIWVRQAPGKGLEWIGIIYDNGDTYYASWAKGRFTISKTSTTVYLKIASPTTEDTATYFCAREPGSTTQNDLWGQGTLVTVSS
VL: DVVMTQTPASVSEPVGGTVTIKCQASENIYNSLLWYQQKPGQPPKLLIYRASTLASGVSSRFKGSGSGTEFTLTISDLECADAATYYCQNYYNIWTNGAAFGGGTEVVVKR
notes: as for B1
B5: anti-PACAP antibody Ab1 (antibody, human IgG1, kappa, N297A, V domains shown)
VH: QSVEESGGRLVTPGTPLTLTCTVSGFSLSSAVMNWVRQAPGKGLEWIGSIVASGTTYYASWANGRFTISKTSSTTMDLKMTSPTTEDTATYFCARGGGEFFIWGPGTLVTVSS
VL: DPVMTQTPSSTSAAVGGTVTISCQSSESVYSNYLSWYQQKPGQPPNFLIYQASNLASGVPSRFKGSGSGTQFTLTITDLECDDAATYYCAGGYSENIVGFGGGTEVVVKR
notes: as for B1
B6: anti-PACAP antibody Ab9 (antibody, human IgG1, kappa, N297A, V domains shown)
VH: EQSGGGAEGGLVKPGGSLKLSCKASGFTISRDYWICWVRQAPGKGLEWIGCISAGGGSTDYANWVNGRFTLSRDIDQSTGCLQLNSLTDADTAMYYCAGNLEIWGQGTLVTVSS
VL: AQVLTQTPSSVSAAVGGTVTINCQSSPSIYSGAFLSWFQQKPGQPPKFLIYEASKLASGVPSRFSGSGSGTQFTLTISDVQCDDAATYYCLGFYDCSSVDCHAFGGGTEVVVKR
notes: as for B1

Legend:
[1] = target: T1, human PACAP38 (human, not fully specified; C-terminal lysine is amidated; N-terminal or C-terminal biotin in the HTRF and PC-12 cell binding assays); assay: SPR, Ab immobilised
T1 construct: synthetic peptide, bought; also called huPACAP (1-38)
T1 peptide: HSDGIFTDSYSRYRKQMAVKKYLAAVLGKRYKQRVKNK
Procedure, shortened: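 SPR with antibody amine-coupled to the chip and human PACAP38 flowed as analyte at 1.23–100 nM in PBST containing 0.25 M arginine, 0.2 mg/ml BSA and 0.005% azide, pH 7. Association lasted 2–4 min and dissociation 3–120 min. Kinetics were fitted to a 1:1 Langmuir model.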

[2] = target: T2, human PACAP27 (human, C-terminal leucine is amidated; 125I-labelled in Example 10); assay: SPR, Ab immobilised
T2 peptide: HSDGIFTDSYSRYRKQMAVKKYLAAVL

[3] = target: T3, human VIP (human); assay: SPR, Ab immobilised
T3 construct: also called Vasoactive Intestinal Peptide
T3 peptide: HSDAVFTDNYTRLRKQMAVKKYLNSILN

[4] = target: T1, human PACAP38; assay: cell-based or functional assay
[5] = target: T2, human PACAP27; assay: cell-based or functional assay
[6] = target: T1, human PACAP38; assay: cell-based or functional assay
[7] = target: T1, human PACAP38; assay: cell-based or functional assay
[8] = target: T1, human PACAP38; assay: HTRF binding, biotin-PACAP38
Protocol: In parallel, 10 μl of an antibody dilution series (highest final concentration of 100 nM) were incubated with 10 μl of N-terminal or C-terminal biotinylated PACAP38 (35 nM final) alone, or in combination with either PACAP27 (350 nM final) or VIP (350 nM final), i.e., 10× PACAP27 or 10×VIP, respectively, in a HTRF plate. 20 μl of Eu³⁺ cryptate labeled anti-hu Fc donor and 20 μl of d2-labeled streptavidin acceptor were added to each well and incubated for 1 hour at room temperature. Fluorescence was measured at 620 and 665 nm with a delay of 300 μsec.
EC₅₀ values, i.e. the concentration of an antibody that yields a response halfway between the baseline and the maximum value within a specified time period, were computed for each antibody based upon their binding curves and are shown in Table 1 below. […] A humanized form of antibody Ab1 was produced and is identified by an appended “.H”, i.e., Ab1.H, and it also bound PACAP38 with high affinity.

[9] = target: T1, human PACAP38; assay: inhibition of 100 nM biotin-PACAP38 binding to PC-12 cells, TRF
Protocol: To identify antibodies that block PACAP38 binding to PAC1-R-expressing cells, adherent PC-12 cells (ATCC, Manassas, Va.) expressing PAC1-R were used in a Europium-based PAC1-R expressing cells binding assay.
Antibody solutions were incubated with N-terminal biotinylated PACAP38 at 10× the final concentration (100 nM or 30 nM) for 1 hr, then added to PC-12 cells that were plated 24 hrs. prior in black clear bottom 96 well plates (COSTAR™, Corning Incorporated, Corning, N.Y.) and further incubated for 1 hr at room temperature. After three washes, the cells were incubated with 20 μl Europium-labeled streptavidin (PerkinElmer, Waltham, Mass.) for 1 hr at room temperature. Cells were washed three times, then 20 μl DELFIA® Enhancement solution (PerkinElmer, Waltham, Mass.) was added to each well and incubated for 15 minutes with gentle shaking. Plates were read (Time Resolved Fluorescence (“TRF”)) on SPECTRAMAX® (Molecular Devices, Sunnyvale, Calif.) plate reader.
FIGS. 14A-14BB are representative of the inhibition curves obtained by this method (results are shown for Ab1, Ab2, Ab3, Ab4, Ab5, Ab6, Ab7, Ab8, Ab9, Ab10, Ab11, Ab12, Ab13, Ab14, Ab15, Ab16, Ab17, Ab18, Ab19, Ab1.H, Ab10.H, Ab22, Ab23, Ab3.H, Ab4.H, Ab5.H, Ab9.H, and Ab12.H, respectively) wherein the PAC1-R expressing cells were PC-12 cells.

Binder	Kd [1] [nM]	koff [1] [s⁻¹]	kon [1] [M⁻¹ s⁻¹]	Kd [2] [nM]	koff [2] [s⁻¹]	kon [2] [M⁻¹ s⁻¹]	Kd [3] [µM]	koff [3] [s⁻¹]	kon [3] [M⁻¹ s⁻¹]	IC50, 0.1 nM PACAP38-induced PAC1-R mediated cAMP increase [4] [nM]	IC50, 0.1 nM PACAP27-induced PAC1-R mediated cAMP increase [5] [nM]	IC50, 5 nM PACAP38-induced human VPAC1-R mediated cAMP increase [6] [µM]	IC50, 1 nM PACAP38-induced human VPAC2-R mediated cAMP increase [7] [µM]	EC50 [8] [µM]	IC50 [9] [µM]
B1	0.14	4.1e-05	300000	0.21	8.2e-05	390000	0.044	0.00014	3100	0.0512	0.38	0.000797	0.000217	0.0005	0.0078
B2	≤ 0.029	≤ 1e-05	350000	0.14	6e-05	440000	0.21	0.1	480000	0.0393	0.049	0.000481	0.000147	0.00048	0.0203
B3	0.22	7.2e-05	330000	0.51	0.0002	390000	0.12	0.021	170000	0.34	0.0769	0.000943	0.000218	0.00066	0.0286
B4	≤ 0.041	≤ 1e-05	240000	0.096	2.4e-05	250000	7.2	0.86	120000	0.327	0.353	0.000721	0.000239	0.0006	0.0163
B5	≤ 0.027	≤ 1e-05	370000	≤ 0.1	≤ 1e-05	1e+06	0.099	0.025	250000	0.293	0.0729	0.000665	0.000147	0.00043	0.0127
B6	0.14	0.00011	820000	0.34	0.00032	960000	100000	0.1		0.987	2.84	0.00406	0.00696	0.00023	0.0333
